For data set [1], the target named is T1, L-selectin (LS-Rg) (Homo sapiens) (UniProt P14151).
T1 sequence: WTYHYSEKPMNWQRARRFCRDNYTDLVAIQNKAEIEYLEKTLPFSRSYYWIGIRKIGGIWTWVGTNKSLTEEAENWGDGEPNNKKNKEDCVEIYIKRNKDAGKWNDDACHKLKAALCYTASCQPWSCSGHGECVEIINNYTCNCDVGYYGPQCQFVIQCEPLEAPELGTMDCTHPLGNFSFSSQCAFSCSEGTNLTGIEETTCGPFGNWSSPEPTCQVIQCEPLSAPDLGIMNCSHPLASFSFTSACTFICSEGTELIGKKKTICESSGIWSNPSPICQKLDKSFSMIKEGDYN
The data set can be described thus: filter.

The target of data set [2] is T2, P-selectin (PS-Rg) (Homo sapiens) (UniProt P16109).
T2 sequence: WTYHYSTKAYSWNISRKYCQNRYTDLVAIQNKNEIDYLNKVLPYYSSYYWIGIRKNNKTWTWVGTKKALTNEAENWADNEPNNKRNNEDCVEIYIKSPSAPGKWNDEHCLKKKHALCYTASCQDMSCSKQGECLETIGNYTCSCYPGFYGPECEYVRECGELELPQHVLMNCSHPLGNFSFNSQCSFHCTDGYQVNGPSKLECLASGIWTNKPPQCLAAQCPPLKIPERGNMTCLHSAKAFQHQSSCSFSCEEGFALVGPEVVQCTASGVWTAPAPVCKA
The data set can be described thus: filter.

For data set [3], the target named is T3, E-selectin (ES-Rg) (Homo sapiens) (UniProt P16581).
T3 sequence: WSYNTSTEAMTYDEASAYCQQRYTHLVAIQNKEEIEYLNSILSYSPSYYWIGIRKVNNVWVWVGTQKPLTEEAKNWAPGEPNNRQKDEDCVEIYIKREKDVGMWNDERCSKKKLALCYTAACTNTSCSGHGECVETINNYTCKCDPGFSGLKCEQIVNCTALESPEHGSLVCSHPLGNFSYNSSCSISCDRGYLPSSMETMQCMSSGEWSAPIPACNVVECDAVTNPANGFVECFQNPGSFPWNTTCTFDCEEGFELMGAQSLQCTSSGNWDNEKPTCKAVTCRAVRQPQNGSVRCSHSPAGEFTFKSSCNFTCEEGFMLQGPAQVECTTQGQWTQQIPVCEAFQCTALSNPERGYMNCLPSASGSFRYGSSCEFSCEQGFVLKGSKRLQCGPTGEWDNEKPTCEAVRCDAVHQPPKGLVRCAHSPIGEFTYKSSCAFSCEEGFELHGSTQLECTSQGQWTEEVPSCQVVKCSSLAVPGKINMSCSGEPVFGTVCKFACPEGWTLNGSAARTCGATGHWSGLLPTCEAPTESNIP
The data set can be described thus: filter.

The target of another data set is CD22beta (CD22beta-Rg) (UniProt P20273). The data set can be described thus: filter.
Chain of CD22beta (CD22beta-Rg) (P20273 20-687): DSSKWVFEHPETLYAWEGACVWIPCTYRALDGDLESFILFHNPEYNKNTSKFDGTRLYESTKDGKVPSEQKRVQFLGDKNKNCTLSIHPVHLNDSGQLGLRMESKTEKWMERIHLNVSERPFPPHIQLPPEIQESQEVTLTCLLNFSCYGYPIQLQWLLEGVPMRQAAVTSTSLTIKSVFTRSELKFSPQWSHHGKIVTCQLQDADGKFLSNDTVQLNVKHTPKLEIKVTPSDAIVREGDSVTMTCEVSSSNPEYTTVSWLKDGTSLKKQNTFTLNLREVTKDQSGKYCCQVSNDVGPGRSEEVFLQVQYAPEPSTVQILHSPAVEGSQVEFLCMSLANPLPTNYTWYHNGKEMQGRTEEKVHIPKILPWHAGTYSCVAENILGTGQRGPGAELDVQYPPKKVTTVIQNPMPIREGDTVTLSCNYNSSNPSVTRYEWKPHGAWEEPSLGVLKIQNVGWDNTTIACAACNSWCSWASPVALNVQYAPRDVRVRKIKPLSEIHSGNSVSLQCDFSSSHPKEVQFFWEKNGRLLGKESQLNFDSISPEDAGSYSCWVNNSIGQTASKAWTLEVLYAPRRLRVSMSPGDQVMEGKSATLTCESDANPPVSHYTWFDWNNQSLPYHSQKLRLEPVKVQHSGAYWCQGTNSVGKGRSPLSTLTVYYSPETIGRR
In data set [4] the target is T4, wheat germ agglutinin (WGA) (Triticum vulgare) (UniProt P10968).
T4 sequence: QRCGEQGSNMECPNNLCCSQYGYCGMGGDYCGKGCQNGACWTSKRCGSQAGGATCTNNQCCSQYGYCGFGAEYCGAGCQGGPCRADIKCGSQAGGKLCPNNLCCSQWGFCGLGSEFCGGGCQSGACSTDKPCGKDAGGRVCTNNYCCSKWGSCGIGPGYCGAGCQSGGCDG
Description: filter.

In data set [5] the test system is Datura stramonium lectin (Datura stramonium). Description: filter. Conditions: 2'-NH2 all C and U.
Data set [6] deals with T5, L-selectin on PBMC (Homo sapiens) (UniProt P14151).
T5 sequence: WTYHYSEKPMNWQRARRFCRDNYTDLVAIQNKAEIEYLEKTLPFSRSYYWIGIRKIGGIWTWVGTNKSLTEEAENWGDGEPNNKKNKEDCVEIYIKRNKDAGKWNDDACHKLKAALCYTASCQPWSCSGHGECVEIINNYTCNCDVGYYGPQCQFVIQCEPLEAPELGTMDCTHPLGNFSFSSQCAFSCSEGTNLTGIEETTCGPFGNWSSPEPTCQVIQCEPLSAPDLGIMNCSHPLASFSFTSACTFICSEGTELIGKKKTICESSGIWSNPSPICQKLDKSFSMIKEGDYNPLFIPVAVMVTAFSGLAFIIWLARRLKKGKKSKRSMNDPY
The settings on record: 2'-NH2 all C and U; PBMC binding on ice; competed by DREG-56 anti-L-selectin antibody.

The target in data set [7] is T1, L-selectin (LS-Rg) (Homo sapiens). Description: inhibition. The settings on record: 2'-NH2 all C and U; inhibits LS-Rg binding to immobilized sialyl-Lewis X, room temp, Ca/Mg.
Setting [8] is: 2'-NH2 all C and U, HBSS, room temp.
Where [9] appears, read: 2'-NH2 on all C and U, <5% binding at highest protein, 4 C, HSMC.

pIC50, pKd: −log10 of the molar value.

Usually pKd stands for the negative decadic logarithm of the Kd, by convention in mol/L. “CTACCTACGATCTGACTAGCCGAGGATCTGATACTTATTGAACATAMCCGCACNCAGGCTTGCTTACTCTCATGTAGTTCC [102]”: the pKd in data set [1] (37 C, room temp not determined) was 8.10.

In the case of “CTACCTACGATCTGACTAGCCGAGGTAGTCGTTATAGGGTRCRCACGACACAAARCRGTRGCTTACTCTCATGTAGTTCC [127]”, the pKd was 9.00 in data set [1] (room temp, 890 pM at 37 C); 6.11 in data set [2] (room temp, Ca/Mg buffer); 5.89 in data set [3] (room temp, Ca/Mg buffer); less than 4.00 with CD22beta (CD22beta-Rg) (<1% binding at 700 nM, room temp); less than 4.00 in data set [4] (<3% binding at 1.4 µM, room temp).

As to “CTACCTACGATCTGACTAGCNNNNNNNNNNNNNNNNNNNNNNNNNNNNNNNNNNNNNNNNGCTTACTCTCATGTAGTTCC [random 40BH ssDNA pool]”, the pKd in data set [1] (estimate for random ssDNA) is 5.00.

Regarding “GGGAAAAGCGAAUCAUACACAAGAAAGGGAUGGGAUUGGGACGAGCGGCCAAGACUCGGCGGGAACGAAGGGUCCGCUCCGCCAGAGACCAACCGAGAA [6.8]”, the pKd in data set [5] (<5% bound at 1 uM protein) was less than 4.70.

The sequence “GGGAAAAGCGAAUCAUACACAAGACAGCGGCGGAGUCAGUGAAAGCGUGGGGGGYGCGGGAGGUCUACCCUGACGCUCCGCCAGAGACCAACCGAGAA [6.14]” had a pKd in data set [4] (2'-NH2 all C and U, <5% bound at 1 uM WGA) of less than 4.70.

The sequence “GGGAAAAGCGAAUCAUACACAAGACGGCUGUGUGGUGUUGGAGCGUCAUAGUAGGAGUCGUCACGAACCAAGGCGCUCCGCCAGAGACCAACCGAGAA [11.24]” gave a pKd in data set [5] (<5% bound at 1 uM protein) of less than 4.70.

The sequence “GGGAAAAGCGAAUCAUACACAAGACUGGCAAGRAGUGCGUGAGGGUACGUUAGGGGUGUUUGGGCCGAUCGCAUGCUCCGCCAGAGACCAACCGAGAA [11.7]” showed a pKd in data set [4] (setting [8]) of 7.80.

On to “GGGAAAAGCGAAUCAUACACAAGAGAGGUGRAUGGGAGAGUGGAGCCCGGGUGACUCGAGGAUUCCCGUGCUCCGCCAGAGACCAACCGAGAA [11.3]”, for which, in data set [4] (setting [8]), the pKd is 6.39.

“GGGAAAAGCGAAUCAUACACAAGAGUAGGAGGUUCCAUCACCAGGACUCGGCGGGAACGGAAGGUGAUGSGCUCCGCCAGAGACCAACCGAGAA [11.35]” showed a pKd in data set [4] (setting [8]) of 7.05.

As to “GGGAAAAGCGAAUCAUACACAAGANNNNNNNNNNNNNNNNNNNNNNNNNNNNNNNNNNNNNNNNNNNNNNNNNNGCUCCGCCAGAGACCAACCGAGAA [random 50N9 RNA pool]”, the pKd in data set [4] (2'-NH2 all C and U, no binding at 36 uM WGA monomer) is less than 2.40.

Turning to “GGGAAAAGCGAAUCAUACACAAGAUUGGUCGUACUGGACAGAGCCGUGGUAGAGGGAUUGGGACAAAGUGUCAGCUCCGCCAGAGACCAACCGAGAA [11.20]”, the pKd in data set [5] (HBSS, room temp) is 4.95.

With “GGGAGGACGAUGCGGAAGUGAAGCUAAAGCGGAGGGCCAUUCAGUUUCNCACCACAGACGACUCGCCCGA [F14.2]”, the pKd is 8.74 in data set [1] (2'-NH2 all C and U, 4 C, HSMC, 7.2 nM at room temp); 6.35 in data set [2] (2'-NH2 all C and U, 4 C, HSMC); 5.72 in data set [3] (2'-NH2 all C and U, 4 C, HSMC); less than 4.70 with CD22beta (CD22beta-Rg) (setting [9]).

As for “GGGAGGACGAUGCGGAAGUGAAGCUAAAGSGGAGGGCCACUCAGAAACGCACCACAGACGACUCGCCCGA [F14.13]”, in data set [1] (2'-NH2 all C and U, 4 C, HSMC, biphasic, fraction 0.74, low affinity Kd 270 nM), the pKd is 8.89.

The sequence “GGGAGGACGAUGCGGCCGUACAUGGUAARCCUCGAAGGAUUCCCGGGAUGAUCCCCAGACGACUCGCCCGA [F14.27]” gave a pKd in data set [1] (2'-NH2 all C and U, 4 C, HSMC) of 6.84.

Take “GGGAGGACGAUGCGGNNNNNNNNNNNNNNNNNNNNNNNNNNNNNNNNNNNNNNNNCAGACGACUCGCCCGA [random 40N7 RNA pool]”: the pKd in data set [1] (2'-NH2 all C and U, estimate for random RNA) is 5.00.

In general, pIC50 refers to −log10 of the IC50, conventionally taken in molar units. Low readings indicate a high IC50, high ones a low IC50. As for “GGGAGGACGAUGCGGUAACAACAAUCAAGGCGGGUUYACCGCCCCAGUAUGAGUACAGACGACUCGCCCGA [F14.12]”, the pKd in data set [6] is 8.89; in data set [1] (2'-NH2 all C and U, 4 C, HSMC, Table IX prints 5.8 pM (fraction 0.68, low affinity Kd 16.2 nM), 1.7 nM at room temp), 10.22; in data set [2] (2'-NH2 all C and U, 4 C, HSMC), 6.04; in data set [3] (2'-NH2 all C and U, 4 C, HSMC), 7.33; with CD22beta (CD22beta-Rg) (2'-NH2 all C and U, <5% bound at up to 660 nM, 4 C), less than 4.70. Moreover, in data set [7], the negative logarithm of the IC50 (pIC50) is 8.00.

On to “GGGAGGACGAUGCGGUCCAGAGCGUGAAGAUCAACGUCCCGGNGUCGAAGACAGACGACUCGCCCGA [F14.70]”, for which the pKd in data set [1] (2'-NH2 all C and U, 4 C, HSMC, biphasic, fraction 0.75, low affinity Kd 254 nM, 7.8 nM at room temp) is 8.70; in data set [3] (2'-NH2 all C and U, 4 C, HSMC), 5.23; with CD22beta (CD22beta-Rg) (setting [9]), less than 4.70.

The values above are taken from patent publication US6001988.
